Measured values taken from patent publication US20170306018A1 (Bristol-Myers Squibb, published 2017).
Several values for one entry are separate records, joined by “and”; a condition that tells them apart may be missing. Equal entries are not always repeated.

B1: ROR1 Mab2 IgG (antibody, V domains shown)
VH: EVKLVESGGGLVKPGGSLKLSCAASGFTFSSYAMSWVRQIPEKRLEWVASISRGGTTYYPDSVKGRFTISRDNVRNILYLQMSSLRSEDTAMYYCGRYDYDGYYAMDYWGQGTSVTVSS
VL: DIKMTQSPSSMYASLGERVTITCKASPDINSYLSWFQQKPGKSPKTLIYRANRLVDGVPSRFSGGGSGQDYSLTINSLEYEDMGIYYCLQYDEFPYTFGGGTKLEMK
notes: Tested as IgG; also called Mab 4A5
B2: ROR1 Mab2-TCBcv (bispecific antibody)
heavy 1: not shown
heavy 2: EVKLVESGGGLVKPGGSLKLSCAASGFTFSSYAMSWVRQIPEKRLEWVASISRGGTTYYPDSVKGRFTISRDNVRNILYLQMSSLRSEDTAMYYCGRYDYDGYYAMDYWGQGTSVTVSSASTKGPSVFPLAPSSKSTSGGTAALGCLVEDYFPEPVTVSWNSGALTSGVHTFPAVLQSSGLYSLSSVVTVPSSSLGTQTYICNVNHKPSNTKVDEKVEPKSCDKTHTCPPCPAPEAAGGPSVFLFPPKPKDTLMISRTPEVTCVVVDVSHEDPEVKFNWYVDGVEVHNAKTKPREEQYNSTYRVVSVLTVLHQDWLNGKEYKCKVSNKALGAPIEKTISKAKGQPREPQVCTLPPSRDELTKNQVSLSCAVKGFYPSDIAVEWESNGQPENNYKTTPPVLDSDGSFFLVSKLTVDKSRWQQGNVFSCSVMHEALHNHYTQKSLSLSPGK
light 1: DIKMTQSPSSMYASLGERVTITCKASPDINSYLSWFQQKPGKSPKTLIYRANRLVDGVPSRFSGGGSGQDYSLTINSLEYEDMGIYYCLQYDEFPYTFGGGTKLEMKRTVAAPSVFIFPPSDRKLKSGTASVVCLLNNFYPREAKVQWKVDNALQSGNSQESVTEQDSKDSTYSLSSTLTLSKADYEKHKVYACEVTHQGLSSPVTKSFNRGEC
light 2: EVQLLESGGGLVQPGGSLRLSCAASGFTFSTYAMNWVRQAPGKGLEWVSRIRSKYNNYATYYADSVKGRFTISRDDSKNTLYLQMNSLRAEDTAVYYCVRHGNFGNSYVSWFAYWGQGTLVTVSSASVAAPSVFIFPPSDEQLKSGTASVVCLLNNFYPREAKVQWKVDNALQSGNSQESVTEQDSKDSTYSLSSTLTLSKADYEKHKVYACEVTHQGLSSPVTKSFNRGEC
notes: 2+1 TCB with charge variants, bivalent for ROR1 (Mab2) and monovalent for CD3; The chain set is printed under the name Mab2 ROR1-TCB (2+1); also called Mab2 ROR1-TCBcv; Mab2 ROR1-TCB (2+1)
B3: anti-ROR1 IgG1 antibody (ROR1 Mab1) (antibody, V domains shown)
VH: QEQLVESGGRLVTPGGSLTLSCKASGFDFSAYYMSWVRQAPGKGLEWIATIYPSSGKTYYATWVNGRFTISSDNAQNTVDLQMNSLTAADRATYFCARDSYADDGALFNIWGPGTLVTISS
VL: ELVLTQSPSVSAALGSPAKITCTLSSAHKTDTIDWYQQLQGEAPRYLMQVQSDGSYTKRPGVPDRFSGSSSGADRYLIIPSVQADDEADYYCGADYIGGYVFGGGTQLTVTG
notes: Used Alexa488-labelled in some assays; also called anti-ROR1 antibody; anti-ROR1 IgG antibody

Key:
[1] = target: T1, human ROR1 (human, UniProt Q01973 30-937); assay: flow cytometry on PA-1 cells
T1 construct: Endogenous ROR1 on primary B-CLL cells, RPMI8226, Rec-1, SK-OV-3 and PA-1 cells; also called tyrosine-protein kinase transmembrane receptor ROR1; neurotrophic tyrosine kinase, receptor-related 1
Method: (§1) a) The level of expression of ROR1 was measured on human ovarian cancer cell lines by flow cytometry including PA-1, COLO-704, ES-2, SK-OV-3, and OVCAR-5. Briefly, cells were harvested, washed, counted for viability, resuspended at 50,000 cells/well of a 96-well round bottom plate and incubated with Alexa488-labeled anti human ROR1 antibody for 30 min at 4° C. All ROR1 and isotype control antibodies were titrated and analyzed in final concentration range between 0.01-100 nM (0.0015-15 μg/mL). […] At the end of incubation time, cells were centrifuged (5 min at 350×g), washed twice with FACS buffer, resuspended in 100 ul FACS buffer and analyzed on a CantoII device running FACS Diva software. Expression of ROR1 was then quantified as the median fluorescence intensity (MFI) and graphs showing the MFI in function of ROR1 antibody concentrations were plotted. EC50 values were then measured using Prism software (GraphPad). […] The calculated EC50s for binding of ROR1 Mab1 and ROR1 Mab2 to SK-OV-3 are extrapolated values and may be over- or underestimated. […]

[2] = target: T1, human ROR1; assay: flow cytometry on SK-OV-3 cells (extrapolated value)
Method: as §1

[3] = target: T1, human ROR1; assay: cell-based or functional assay
[4] = target: T2, human CD3ε (human, UniProt P07766 23-207); assay: flow cytometry on Jurkat T cells
T2 construct: whole, on cells; CD3 on human leukemic Jurkat T cells, as part of the TCR/CD3 complex; also called CD3 epsilon
Method: Anti-ROR1/anti-CD3 T cell bispecific antibodies generated in Example 5 were analyzed by flow cytometry for their binding to human ovarian cancer cell lines PA-1 and SK-OV-3 and human CD3 expressed on human leukemic T cells Jurkat (ATCC TIB-152). Jurkat T cells were cultured in RPMI1640 medium supplemented with 10% fetal calf serum. Briefly, cultured cells were harvested, counted and cell viability is evaluated using ViCell. Viable cells were then adjusted to 2×10⁶ cells per ml in FACS Stain Buffer (BD Biosciences) containing 0.1% BSA. 100 μl of this cell suspension were further aliquoted per well into a round-bottom 96-well plate. […] After incubation for 30 min at 4° C., cells are centrifuged (5 min, 350×g), washed twice with 150 μl/well BSA-containing FACS Stain Buffer (BD Biosciences), then cells are fixed using 100 ul BD Fixation buffer per well (#BD Biosciences, 554655) at 4° C. for 20 min, resuspended in 120 μl FACS buffer and analyzed using BD FACS CantoII. Binding of the anti-ROR1/anti-CD3 T cell bispecific antibodies to human ovarian cancer cells and T cells were evaluated and the median fluorescence intensity was determined gated on either human ovarian cancer cells or CD3-expressing Jurkat T cells and plotted in histograms and dot plots. […] Median fluorescence intensity for anti-ROR1/anti-CD3 T cell bispecific antibodies in function of antibody concentrations were plotted.

[5] = target: T1, human ROR1; assay: flow cytometry on RPMI8226 cells
Method: a) ROR1 expression was assessed on primary CD19⁺ CD5⁺ CLL cells by flow cytometry. Briefly, cells were harvested, washed, counted for viability, resuspended at 50 000 cells/well of a 96-well round bottom plate and incubated with Alexa488-labeled anti human ROR1 antibody at 10 μg/ml for 30 min at 4° C. (to prevent internalization). At the end of incubation time, cells were centrifuged (5 min at 350×g), washed twice with FACS buffer, resuspended in 100 ul FACS buffer and analyzed on a CantoII device running FACS Diva software.
b) ROR1 expression was then assessed on B lymphocyte myeloma RPMI8226 cell lines by flow cytometry, using the methods described above.

T1 sequence (Q01973 30-937 limits assumed): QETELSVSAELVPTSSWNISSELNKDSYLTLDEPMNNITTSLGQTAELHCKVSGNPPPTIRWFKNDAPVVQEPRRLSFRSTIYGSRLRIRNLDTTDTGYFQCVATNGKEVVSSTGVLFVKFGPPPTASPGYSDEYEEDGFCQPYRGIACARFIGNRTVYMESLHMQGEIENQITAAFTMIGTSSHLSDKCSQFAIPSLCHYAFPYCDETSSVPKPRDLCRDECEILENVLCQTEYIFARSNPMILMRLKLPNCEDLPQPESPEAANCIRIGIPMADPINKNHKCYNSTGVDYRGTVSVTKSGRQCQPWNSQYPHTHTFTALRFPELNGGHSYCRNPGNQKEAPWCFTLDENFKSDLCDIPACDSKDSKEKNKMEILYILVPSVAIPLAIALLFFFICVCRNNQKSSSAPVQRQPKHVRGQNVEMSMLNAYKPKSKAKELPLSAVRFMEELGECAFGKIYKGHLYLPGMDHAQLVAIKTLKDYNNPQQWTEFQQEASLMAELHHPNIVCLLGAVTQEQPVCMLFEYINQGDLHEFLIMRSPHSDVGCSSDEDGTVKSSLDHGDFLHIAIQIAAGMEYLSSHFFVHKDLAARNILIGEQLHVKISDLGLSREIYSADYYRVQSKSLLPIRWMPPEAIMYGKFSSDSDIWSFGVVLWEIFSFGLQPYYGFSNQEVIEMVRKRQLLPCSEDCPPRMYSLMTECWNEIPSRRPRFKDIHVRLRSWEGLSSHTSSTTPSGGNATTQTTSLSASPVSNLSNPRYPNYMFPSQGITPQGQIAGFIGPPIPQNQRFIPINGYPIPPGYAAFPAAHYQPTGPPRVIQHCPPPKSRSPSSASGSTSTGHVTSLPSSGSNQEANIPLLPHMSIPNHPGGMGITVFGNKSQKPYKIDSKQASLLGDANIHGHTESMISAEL
T2 sequence (P07766 23-207): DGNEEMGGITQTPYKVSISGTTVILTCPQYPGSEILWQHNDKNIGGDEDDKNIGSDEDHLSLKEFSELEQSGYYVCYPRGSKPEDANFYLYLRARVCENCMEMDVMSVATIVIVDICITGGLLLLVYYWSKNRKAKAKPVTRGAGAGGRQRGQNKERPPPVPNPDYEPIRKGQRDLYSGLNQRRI

Binder | EC50 [1] | EC50 [2] | Mean EC50 (ng/mL), cell lysis of COLO-704 (n = 1), LDH release [3] | Mean EC50 (ng/mL), cell lysis of OVCAR-5 (n = 1), LDH release [3] | Mean EC50 (ng/mL), cell lysis of PA-1 (n = 2), LDH release [3] | Mean EC50 (ng/mL), cell lysis of SKOV-3 (n = 5), LDH release [3] | Mean EC50 (pM), cell lysis of COLO-704 (n = 1), LDH release [3] | Mean EC50 (pM), cell lysis of OVCAR-5 (n = 1), LDH release [3] | Mean EC50 (pM), cell lysis of PA-1 (n = 2), LDH release, PBMC E:T 10:1 [3] | Mean EC50 (pM), cell lysis of SKOV-3 (n = 5), LDH release [3] | binding result [4] | EC50 [5]
B1 | 0.095 µg/mL and 0.64 nM | ~358 nM and ~53.4 µg/mL | – | – | – | – | – | – | – | – | – | –
B2 | – | – | 14.3 ng/mL | 10.7 ng/mL | 2.9 ng/mL | 141 ng/mL | 73.3 pM | 53.4 pM | 14.6 pM | 707 pM | binds | –
B3 | 0.87 nM and 0.13 µg/mL | ~4.62 nM and ~0.69 µg/mL | – | – | – | – | – | – | – | – | no binding (tested: 3 nM to 500 nM) | 0.087 nM and 0.013 µg/mL
